Values of other authors as cited in PMC3995210.
pKd: −log10 of the molar value.

Biological target: dynein intermediate chain (IC) (Drosophila melanogaster) (UniProt Q24246)
Assay: ITC

UniProt Q24246, sequence (Q24246 whole entry): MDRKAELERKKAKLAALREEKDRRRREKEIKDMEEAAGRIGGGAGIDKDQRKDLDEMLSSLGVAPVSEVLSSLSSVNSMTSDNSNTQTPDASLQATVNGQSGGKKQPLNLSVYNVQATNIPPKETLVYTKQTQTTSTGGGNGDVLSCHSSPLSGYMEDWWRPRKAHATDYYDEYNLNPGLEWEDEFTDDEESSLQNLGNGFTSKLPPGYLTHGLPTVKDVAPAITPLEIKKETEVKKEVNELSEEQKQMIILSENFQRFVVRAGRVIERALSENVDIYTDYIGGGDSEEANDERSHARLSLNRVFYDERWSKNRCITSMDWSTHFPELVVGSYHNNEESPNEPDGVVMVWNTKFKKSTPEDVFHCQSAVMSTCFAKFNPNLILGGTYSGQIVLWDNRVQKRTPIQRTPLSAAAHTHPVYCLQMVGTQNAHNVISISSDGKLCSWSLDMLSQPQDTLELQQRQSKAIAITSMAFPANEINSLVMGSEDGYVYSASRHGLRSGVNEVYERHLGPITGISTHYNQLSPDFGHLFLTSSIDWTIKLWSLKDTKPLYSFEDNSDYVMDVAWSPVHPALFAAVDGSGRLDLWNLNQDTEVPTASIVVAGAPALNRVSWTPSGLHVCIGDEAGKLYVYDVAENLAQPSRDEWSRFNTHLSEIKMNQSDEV

- pKd: 5.01
Substance: LC8 (from UniProt Q24117)
